{"source": "the nanobody polyreactivity screen of Harvey et al. (2022)", "data": [{"assay": "yeast display, Sf9 membrane polyspecificity reagent, FACS + sequencing; frameworks hold sequencing errors", "summary_of_the_method": "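Synthetic nanobody libraries on Saccharomyces cerevisiae BJ5465 were galactose-induced for 36–48 hours, stained 1 hour at 4 °C with 10% biotinylated, detergent-solubilized Sf9 membrane reagent and enriched on streptavidin microbeads. FACS then separated cells into low and high (top ~1%) gates by anti-HA (expression) and streptavidin (reagent binding) fluorescence. Genes were colony-PCR amplified, MiSeq 2 × 250 sequenced and CDR-length filtered. A clone's polyreactivity label is that of its gate of origin.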", "values": [{"sequence": "QVQLVESGGGLVQAGGSLRISCAPSGSIFESNAMGWYRQAPGKERELVADITYRGTRTYYADSVKGRFTISRDNAKNTVYLQMNSLKPEDTAVYYCAVWQDHYDWGQGTQVTVSS", "polyreactivity (PSR sort gate)": "low polyreactivity"}, {"sequence": "QVQLVESGGGLVQAGGSLRISCAPSGSNINAYAIGWYRQSTGKERELVARITRGDGTTYYADSVKGRFTISRDNAMNTVYLQMNRLKPEDNAVYYCNRVEYYSVWGYDYWVQGTQVTVSS", "polyreactivity (PSR sort gate)": "low polyreactivity"}, {"sequence": "QVQLVESGGGLVQAGGSLRISCAPSGSTFYKYTMGWYRQAPGKERELVAAISGSGTTTYYADSVKGRFTISRDNAKNTVYLRMNSLKPEDTAVYYCNTARGYDYGGLDYWGQGSQVTVSS", "polyreactivity (PSR sort gate)": "high polyreactivity"}, {"sequence": "QVQLVESGGGLVQAGGSLRISCASSGRIFKINAMGWYRQAPGKERELVATITRDGRTYYADSVKGRFTISRDNAKKTVYLQMNSLKPDDTAVYYCNVRRAFSGWRGYDYWGQGTQVTVSS", "polyreactivity (PSR sort gate)": "high polyreactivity"}, {"sequence": "QVQLVESGGGLVQAGGSLRISCASSGSIFVINAMGWYRQAPGKERELVAAIDWGGDTTYYADSVKGRFTISRDNAKITVYLQMNSLKPEDTAVYYCAADLFLWYEFEYWGQGTQVTVSS", "polyreactivity (PSR sort gate)": "high polyreactivity"}, {"sequence": "QVQLVESGGGLVQAGGSLRISFAASGRTFFGYAMGWYRQAPGKERELVATIDGSDGSTFYADSVKGRFTISRDNAKNTVYLQMNSLKPEDTAVYYCAAENFWQSKEYDYWGQGTQVTVSS", "polyreactivity (PSR sort gate)": "low polyreactivity"}, {"sequence": "QVQLVESGGGLVQAGGSLRISFAASGYIFYNYARRSYRQAPGKERELLAAMTRGGSTNYADSVKGRFTISRDNAQNTVYLQMNSLKPEDTAGYYCAAEEGPPWSRYDSWGQGTQVTVSS", "polyreactivity (PSR sort gate)": "low polyreactivity"}, {"sequence": "QVQLVESGGGLVQAGGSLRISSAASGFTFTPNAKGWYRQAPGKERELVAVITWNGGTTYYADSVKGRFTISRDNAQNTVYLQMNSLKPEDTAVYYCNADGLILYDYWGHGTQVTVSS", "polyreactivity (PSR sort gate)": "low polyreactivity"}, {"sequence": "QVQLVESGGGLVQAGGSLRISSAASGSTFFRYDLGWYRPAPGKEWELVAAITASGTRTYYADSVKGRFTISRDNAKNTVYLQMNSLKPEDTAVYYCAADSRRYGYDYWGQGYQVTVSS", "polyreactivity (PSR sort gate)": "high polyreactivity"}, {"sequence": "QVQLVESGGGLVQAGGSLRISSAPSGITYYGNVMGWYRQAPGKERELVADISWSGGRTYYADSVKGRFTISRDNAKNTVYLQITSLKPEVTALYDCAAEGTTNRGVYASYDYWGQGTQVTVSS", "polyreactivity (PSR sort gate)": "low polyreactivity"}, {"sequence": "QVQLVESGGGLVQAGGSLRITCAASASIYYRYAMGWNRQAPGKERELVAAITYSGGSTYYADSVKGRFTISRDNAKNPVYLQMNSLKPEDTAVYYCAKDYPPPISDYSRYYGYGYWGQGTQVTVSS", "polyreactivity (PSR sort gate)": "low polyreactivity"}, {"sequence": "QVQLVESGGGLVQAGGSLRITCAASGLTFPPNAMGWYRQAPGKERELVAAITRSGGSTYYADSVKGRFTISRDNAKNTFYLQMNSLKPEDTAVYYCAVYLPYSQRYVHYYYWGQGPQVTVSS", "polyreactivity (PSR sort gate)": "high polyreactivity"}, {"sequence": "QVQLVESGGGLVQAGGSLRKSCAASGSIFADKAMGWYRQAPGKERELVATISAPDGSTYYADYVKGRFTISGDNAKNTVYLQMNSLKPEDTAVYYCAASGYYILSWRYDYWGQGTQVTVSS", "polyreactivity (PSR sort gate)": "low polyreactivity"}, {"sequence": "QVQLVESGGGLVQAGGSLRLAVLPPDLPSTLNDMGWYRQAPGKERELVAAITRGGSTNYADSVKGRFTLSRDNAKNTVYLQMNSLKPEDTAVYYCAAPYAGWRDGGDYWGQGTQVTVSS", "polyreactivity (PSR sort gate)": "low polyreactivity"}, {"sequence": "QVQLVESGGGLVQAGGSLRLCCAASGFILLDYAKGWYRQAPGNERELVAAISWSGARTYYADSVKRRFTISRDNAKNTVYLQMNSLKPEDTAVYYCATRYRWTPYDYWGQGTQVTVSS", "polyreactivity (PSR sort gate)": "low polyreactivity"}, {"sequence": "QVQLVESGGGLVQAGGSLRLCCAASGIIFDGYAMGWYRQAPGKERELVAGITIGDITYYADSVKGRFTISRDNAKNTVYLQMTSLKPEDTAVYYCAADSYYYQTAYDYWGQGTQVTVSS", "polyreactivity (PSR sort gate)": "low polyreactivity"}, {"sequence": "QVQLVESGGGLVQAGGSLRLCCAASGNIFAYYAMGWYRQPPAKERELVAGISRRGGNTYYADSVKGRFTISRDNAKNTVYLQMNSLKPEDTAVYYCAAITYSGQRFDYWGQGTQVTVSS", "polyreactivity (PSR sort gate)": "high polyreactivity"}, {"sequence": "QVQLVESGGGLVQAGGSLRLCCAASGSIFKYNAMGWYRQAPGKERELVAAITWSGGSTYYADSVKGRFTISRDNAKNTVYLQMNSLKPEDTAVYYCAAVYYYASRTSKQPYYHWGQGTQVSVSS", "polyreactivity (PSR sort gate)": "high polyreactivity"}, {"sequence": "QVQLVESGGGLVQAGGSLRLCCAASGSNFRRNAMGLYRQAPGKERELVAAMSWTSTRTYYADSVKVRFTISRDNAKNTVYLQMNSLKPEDTAVYYCAADSNGGGFQLYSYDSGLYYWGQGTQVTVSS", "polyreactivity (PSR sort gate)": "high polyreactivity"}, {"sequence": "QVQLVESGGGLVQAGGSLRLCCASSGSTFTYNTMGWYRQAPGKERELVAAISFSSGRTYYADSVKVRFTISRYNAINTVYLHINSLKPEDTAVYYCNARTWETLRGYDYWGQGTQVTVSS", "polyreactivity (PSR sort gate)": "high polyreactivity"}, {"sequence": "QVQLVESGGGLVQAGGSLRLICAASGFIFFGNALGWYRQAPGKERELVAVITWSGGSTYADSVKGRFTISRDNAKNTVYLLMNSLKPEDTAVYYCAFVTPYWSFYEQVIPSNYWGQGTQVTVSS", "polyreactivity (PSR sort gate)": "low polyreactivity"}, {"sequence": "QVQLVESGGGLVQAGGSLRLICAASGFIFFINDMGWYRQAPGKERELVAAISWSCGSTYYADSVKGRFTISRDNAKNTVYLQMNSLKPEDTAVYYCNTDVPTAQYDYWGQGTQVTVSS", "polyreactivity (PSR sort gate)": "low polyreactivity"}, {"sequence": "QVQLVESGGGLVQAGGSLRLICAASGFIFLVNAMGWYRQAPGKERELVAAISLSTTSTYYADSVKGRFTISRDNAKNTVYLQMNSLKPEDTAVYYCAADHWGVGAPTYGQYTTHDYWGQGTQVTVSS", "polyreactivity (PSR sort gate)": "low polyreactivity"}, {"sequence": "QVQLVESGGGLVQAGGSLRLICAASGFTFADNSMAWYRQAPGKEREFVASITYSTGSTYADSEKGRVTISRDNAKNTVYLEMHSLKPEDTAVYYCAVDNISNWAVENDDWGQGTLVTVSS", "polyreactivity (PSR sort gate)": "low polyreactivity"}, {"sequence": "QVQLVESGGGLVQAGGSLRLICAASGFTFCLYAMGWYRQAPGKERELVADIDWDGGTYYADSVKGRFTISRDNAKNTVYLQMNSLKPEDTAVYYCAAELTEWTNGFDYWGQGTQETVSS", "polyreactivity (PSR sort gate)": "high polyreactivity"}, {"sequence": "QVQLVESGGGLVQAGGSLRLICAASGFTFDFYAMGWYRQAPGKERELVATISYSGASTYYADSVKGRFTISRDNAKNTVYLEMNSLKPEVTAVYYCAAYYPTRYQYGTIWVAYNYWGQGTQVTVSS", "polyreactivity (PSR sort gate)": "low polyreactivity"}, {"sequence": "QVQLVESGGGLVQAGGSLRLICAASGFTFGPYDMGGYRQAPGKERELVAAITDSSGSTHYADSVKGRFTISRDNAKNTVYLQMNSLKPEDTAVYYCAASDVVFALNGYYPGEDDYWGQGTQVTVSS", "polyreactivity (PSR sort gate)": "low polyreactivity"}, {"sequence": "QVQLVESGGGLVQAGGSLRLICAASGFTFPSYAMGWYRQAPGKEREFVAGITKGGGNTYYADSVKGRFTISRDNAKNTVYLQMNSLIPEDTAVYYCAADRSSFYWSHGTVYGYDYWGQGTQVTVSS", "polyreactivity (PSR sort gate)": "low polyreactivity"}, {"sequence": "QVQLVESGGGLVQAGGSLRLICAASGFTFPWNVMGWYRQAPGKERELVAAITYDGGGTYADSVKGRFTISRDNAKNTVYLQMNSLKPEDTAVYYCNADLIYGEEYDYWGQGTQVTVSS", "polyreactivity (PSR sort gate)": "low polyreactivity"}, {"sequence": "QVQLVESGGGLVQAGGSLRLICAASGFTFPWYAMGWYRQAPGKERELVATITSGGRTNYADSVKGRFTISRDNAKNTVYLQMNSLKPEDTAVYYCAARASKYSYRTDPWHGDYWGQGTQVTVSS", "polyreactivity (PSR sort gate)": "high polyreactivity"}, {"sequence": "QVQLVESGGGLVQAGGSLRLICAASGFTFSYYAMGWSRQAPGKERELVAANSWSGTSTYYADSVKGRFTISRDNAKNTVYLQMNSLKPEDTAVYYCAAGYSASRKVDYRGQGTQVTVSS", "polyreactivity (PSR sort gate)": "high polyreactivity"}, {"sequence": "QVQLVESGGGLVQAGGSLRLICAASGGIFNYYAMGWYREAPGKERELVAAISASGGSTYYADSVKGRFTISRDNAKNTVYLQMNSLKPEDTAVYYCAAGLPYGYGYDYWGQGTQVTVSS", "polyreactivity (PSR sort gate)": "low polyreactivity"}, {"sequence": "QVQLVESGGGLVQAGGSLRLICAASGGIFTRNDMGWYRQAPGKERELVAGISWRGGSTYYADSVKGRFTISRDNAKNTVYLQMNSLKPEDTAVYYCAALDTGGERDYWGQGTQVNVSS", "polyreactivity (PSR sort gate)": "low polyreactivity"}, {"sequence": "QVQLVESGGGLVQAGGSLRLICAASGGIFVYYAMGWYRQAPGKERELVAAISSGGTTNYADSVKGRFTISRDNAKNTVYLQMNSLKPEDTAVYYCAIYVSWPLYYYWGQCTQVTVSS", "polyreactivity (PSR sort gate)": "low polyreactivity"}, {"sequence": "QVQLVESGGGLVQAGGSLRLICAASGGTFWIYAMGWYRQAPGKERELVAGITTSGATTYYADSVKGRFTISRDNAKNTVYLQMNSLKPEDTAVYYCAADEYYRYEYWGQGTQVTVSS", "polyreactivity (PSR sort gate)": "low polyreactivity"}, {"sequence": "QVQLVESGGGLVQAGGSLRLICAASGIIFSDYAMGWYRQAPGKERELVAAITGGGSTYYADSVKGRFTISRDNAKNTVYLQMNSLKPEDTAVYYCNADTWGFTYYYWGQGTQVTVSS", "polyreactivity (PSR sort gate)": "low polyreactivity"}, {"sequence": "QVQLVESGGGLVQAGGSLRLICAASGIIFWAYDMGWYRQAPGKERELVAAITWGGGSTYYADSVKGRFTISRDNAKNTVYLQMNSLKPEDTAVYYCAADRYVFQGYGPEVDYWGQGTQVTVSS", "polyreactivity (PSR sort gate)": "low polyreactivity"}, {"sequence": "QVQLVESGGGLVQAGGSLRLICAASGITFRRYGMGWYRQAPGKERELVATITSSVGSRTYYADSVKGRLTISRDNAKNTVYLQMNSLKPEDTAVYYCAADHRVYDYEYWGQGTQVTVSS", "polyreactivity (PSR sort gate)": "low polyreactivity"}, {"sequence": "QVQLVESGGGLVQAGGSLRLICAASGLIFYKYAMGWYRQAPGKERELVAAITSGGSTNYADSVKGRFTISRDNAKNSVYLQMNSLKPEVTAVYYCNADYNHYLVVRWWYPPVDYWGQGSQVTVSS", "polyreactivity (PSR sort gate)": "low polyreactivity"}, {"sequence": "QVQLVESGGGLVQAGGSLRLICAASGLILKNYAMGWYRQAPGKERELVAAITRSGGSTYYADSVKGRFTISRDNAKNTVYLQMNSLKPEDTAVYDCAARNPSGKGRYDYWGQGTQVTVSS", "polyreactivity (PSR sort gate)": "high polyreactivity"}, {"sequence": "QVQLVESGGGLVQAGGSLRLICAASGLTFGSYAMGWYRQAPGKERELVAAISRSGGSTYYADSVKGRFTISRDNAKNTVYLQMNSLKPEDTAVYYCNAVNPYYAPTDRRVGYDYWGQGTQVTVSS", "polyreactivity (PSR sort gate)": "high polyreactivity"}, {"sequence": "QVQLVESGGGLVQAGGSLRLICAASGLTFLNNAMGSYRQAPGKERELVAAISDGGSTNYADSVKGRFTISRDNAKNTVYLQMNSLKAEDTAVYYCAAVYTSASSGSWGQGTQVTVSS", "polyreactivity (PSR sort gate)": "low polyreactivity"}, {"sequence": "QVQLVESGGGLVQAGGSLRLICAASGLTFPTYAMAWYRQAPGKERELVAAISRIGGRTYYADSVKGRFTISRDNAKNTVYLQMNSLKPEETAVYYCAADGIKGGVEYDYWGQGTQVTVSS", "polyreactivity (PSR sort gate)": "high polyreactivity"}]}]}
